According to patent US20210253716A1 (Regeneron, published 2021):
Numbering of substitutions follows the chain as printed. One block for each binder: values may come before it.

Legend:
[1] = target: T1, full length human ACVR1 (R206H) on HEK293/BRE-luc/hACVR1-R206H-clone H2 cells (human, UniProt Q04771 21-509); assay: cell-based or functional assay
T1 sequence: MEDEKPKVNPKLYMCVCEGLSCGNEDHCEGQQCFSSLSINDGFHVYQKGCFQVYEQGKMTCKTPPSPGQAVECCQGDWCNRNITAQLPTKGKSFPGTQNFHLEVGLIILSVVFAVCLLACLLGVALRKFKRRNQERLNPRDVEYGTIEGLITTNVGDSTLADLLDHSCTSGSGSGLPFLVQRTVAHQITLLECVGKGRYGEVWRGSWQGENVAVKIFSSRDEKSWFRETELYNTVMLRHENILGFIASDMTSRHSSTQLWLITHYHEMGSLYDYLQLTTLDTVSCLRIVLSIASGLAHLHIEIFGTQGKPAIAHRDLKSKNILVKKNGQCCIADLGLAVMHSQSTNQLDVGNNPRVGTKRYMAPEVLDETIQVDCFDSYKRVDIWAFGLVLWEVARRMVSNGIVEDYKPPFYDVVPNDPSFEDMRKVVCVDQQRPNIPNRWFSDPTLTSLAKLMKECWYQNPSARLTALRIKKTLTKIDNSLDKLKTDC

[2] = target: T2, human ACVR1 extracellular domain expressed with a C-terminal myc-myc-hexahistidine tag (human); assay: SPR (Biacore), mAb captured, 25 C
T2 construct: also called hACVR1-MMH
T2 chain: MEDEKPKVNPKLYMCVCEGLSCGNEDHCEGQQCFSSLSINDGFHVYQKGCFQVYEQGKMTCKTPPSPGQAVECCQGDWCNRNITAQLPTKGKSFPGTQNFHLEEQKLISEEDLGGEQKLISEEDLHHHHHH
Description: (§1) Equilibrium dissociation constants (KD) for ACVR1 binding to purified anti-ACVR1 monoclonal antibodies were determined using a real-time surface plasmon resonance biosensor (SPR-Biacore), Biacore 4000. All binding studies were performed in 10 mM HEPES, 150 mM NaCl, 3 mM EDTA, and 0.05% v/v surfactant Tween-20, pH 7.4 (HBS-ET) running buffer at 25° C. and 37° C. The Biacore CM5 sensor surface was first derivatized by amine coupling with a monoclonal mouse anti-human Fc antibody (GE, #BR-1008-39 or REGN2567) to capture anti-ACVR1 monoclonal antibodies. […] ACVR1 reagents were then injected over anti-human Fc captured anti-ACVR1 monoclonal antibody surface for 2.5-3 minutes at a flow rate of 30 μL/minute, while the dissociation of monoclonal antibody bound ACVR1 reagent was monitored for 10-15 minutes in HBS-ET running buffer. Kinetic association rate constant (kₐ) and dissociation rate constant (kd) were determined by fitting the real-time sensorgrams to a 1:1 binding model using Scrubber 2.0c curve-fitting software. Binding dissociation equilibrium constants (KD) and dissociative half-lives (t½) were calculated from the kinetic rate constants as: […]

[3] = target: T3, human ACVR1 extracellular domain expressed with a C-terminal mouse IgG2a Fc tag (human); assay: SPR (Biacore), mAb captured, 25 C
T3 construct: also called hACVR1-mFc
T3 chain: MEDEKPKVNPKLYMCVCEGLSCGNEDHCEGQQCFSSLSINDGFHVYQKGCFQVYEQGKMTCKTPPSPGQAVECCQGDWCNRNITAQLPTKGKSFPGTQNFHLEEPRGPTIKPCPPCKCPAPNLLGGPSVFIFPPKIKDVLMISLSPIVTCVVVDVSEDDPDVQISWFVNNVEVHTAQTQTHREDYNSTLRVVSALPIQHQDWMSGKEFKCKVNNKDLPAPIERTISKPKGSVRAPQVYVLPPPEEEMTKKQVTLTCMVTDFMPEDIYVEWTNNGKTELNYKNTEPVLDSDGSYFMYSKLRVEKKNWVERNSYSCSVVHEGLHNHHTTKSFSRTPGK
Description: as §1

[4] = target: T4, mouse ACVR1 extracellular domain expressed with a C-terminal myc-myc-hexahistidine tag (mouse); assay: SPR (Biacore), mAb captured, 25 C
T4 construct: also called mACVR1-MMH; mACVR1-mmh
T4 chain: T2 chain with M1V, P10Q
Description: as §1

[5] = target: T2, human ACVR1 extracellular domain …; assay: SPR (Biacore), mAb captured, 37 C
Description: as §1

[6] = target: T3, human ACVR1 extracellular domain …; assay: SPR (Biacore), mAb captured, 37 C
Description: as §1

[7] = target: T4, mouse ACVR1 extracellular domain …; assay: SPR (Biacore), mAb captured, 37 C
Description: as §1

[8] = target: T1, full length human ACVR1 (R206H) on …; assay: flow cytometry, 70 nM antibody, HEK293/hACVR1-R206H cells
Description: Cells were fixed using BD CytoFix™ (Becton Dickinson, #554655) and analyzed on either Hypercyt® or IQue® Flow Cytometers (Intellicyt®). Unstained and secondary antibody alone controls were also tested for all cell lines. The results were analyzed using ForeCyt® (IntelliCyt®) software to determine the geometric means of fluorescence for viable cells and binding ratios were calculated by normalizing the geometric mean value of the test condition by the geometric mean value of the corresponding unstained cells.

- % Inhibition, BRE-luc reporter, 2 nM hBMP7 [1]: 62%
- IC50 [M], BRE-luc reporter, 2 nM hBMP7 [1]: 1.4e-10 M
- 900 nM or 100 nM Ag Bound (RU) [2]: 47 RU
- Kd [2]: 8.43 nM
- koff [2]: 0.000521 s⁻¹
- kon [2]: 61800 M⁻¹ s⁻¹
- t½ [2]: 22 min
- 100 nM Ag Bound (RU) [3]: 157 RU
- Kd [3]: 0.936 nM
- koff [3]: 0.000121 s⁻¹
- kon [3]: 129000 M⁻¹ s⁻¹
- t½ [3]: 95 min
- 900 nM or 100 nM Ag Bound (RU) [4]: -2 RU
- 900 nM or 100 nM Ag Bound (RU) [5]: 64 RU
- Kd [5]: 21.4 nM
- koff [5]: 0.00326 s⁻¹
- kon [5]: 153000 M⁻¹ s⁻¹
- t½ [5]: 3.5 min
- 100 nM Ag Bound (RU) [6]: 201 RU
- Kd [6]: 1.58 nM
- koff [6]: 0.000495 s⁻¹
- kon [6]: 314000 M⁻¹ s⁻¹
- t½ [6]: 23 min
- 900 nM or 100 nM Ag Bound (RU) [7]: 2 RU
- MFI - Normalized to Unstained Control [8]: 1660 fold
B1: mAb29257 (antibody, human IgG4 S228P, kappa, V domains shown)
VH: EVQLVESGGNLVQPGGSLRLSCAASGFTFSNYAMSWVRQAPGKGLEWVSGITGNGIKTYYSVSAKGRFTISRDNSKNTLFLQMNSLRAEDTAIYYCVKERGHSWFGDWFDPWGQGTLVTVSS
VL: DIVMTQTPLSSPVTLGQPASISCRSSQGLVNSDGNTYLSWLHQRPGQPPRLLIYEISNRFSGVPDRFSGSGAGTDFTLKISRVEAEDVGFYYCMQSTQFPLTFGGGTKVEIKR

- % Inhibition, BRE-luc reporter, 2 nM hBMP7 [1]: 110%
- IC50 [M], BRE-luc reporter, 2 nM hBMP7 [1]: 1.5e-09 M
- 900 nM or 100 nM Ag Bound (RU) [2]: 35 RU
- Kd [2]: 8.01 nM
- koff [2]: 0.000207 s⁻¹
- kon [2]: 25800 M⁻¹ s⁻¹
- t½ [2]: 56 min
- 100 nM Ag Bound (RU) [3]: 145 RU
- Kd [3]: 1.34 nM
- koff [3]: 5.06e-05 s⁻¹
- kon [3]: 38100 M⁻¹ s⁻¹
- t½ [3]: 228 min
- 900 nM or 100 nM Ag Bound (RU) [4]: 1 RU
- binding result [4]: no binding (tested: 900 nM or 100 nM)
- 900 nM or 100 nM Ag Bound (RU) [5]: 66 RU
- Kd [5]: 32.2 nM
- koff [5]: 0.00173 s⁻¹
- kon [5]: 53900 M⁻¹ s⁻¹
- t½ [5]: 7 min
- 100 nM Ag Bound (RU) [6]: 222 RU
- Kd [6]: 3.65 nM
- koff [6]: 0.000335 s⁻¹
- kon [6]: 91700 M⁻¹ s⁻¹
- t½ [6]: 34 min
- 900 nM or 100 nM Ag Bound (RU) [7]: 2 RU
- MFI - Normalized to Unstained Control [8]: 1660 fold
B2: mAb27245 (antibody, human IgG4 S228P, kappa, V domains shown)
VH: QVQLQQWGAGLLKPSETLSLTCAVYNGSFSSYYWNWIRQPPGKGLEWLGEINHRGSTNYNPSLTSRVTISVDTSKNQFSLKLTSVTAADTAIYYCTAHTRGFLYWGQGTLVTVSS
VL: DIQMTQSPSSLSASVGDRVTITCQASQDINNYLNWYQQKPGKAPKLLIYDASNLVPGVPSRFSGTGSGTDFSFTISSLQPEDIATYYCQHYYDLPLTFGGGTTVAIRR

- % Inhibition, BRE-luc reporter, 2 nM hBMP7 [1]: 110%
- IC50 [M], BRE-luc reporter, 2 nM hBMP7 [1]: 1.8e-09 M
- 900 nM or 100 nM Ag Bound (RU) [2]: 34 RU
- Kd [2]: 6.52 nM
- koff [2]: 0.000123 s⁻¹
- kon [2]: 18900 M⁻¹ s⁻¹
- t½ [2]: 94 min
- 100 nM Ag Bound (RU) [3]: 135 RU
- Kd [3]: 0.918 nM
- koff [3]: 3.2e-05 s⁻¹
- kon [3]: 34900 M⁻¹ s⁻¹
- t½ [3]: 361 min
- 900 nM or 100 nM Ag Bound (RU) [4]: 1 RU
- binding result [4]: no binding (tested: 900 nM or 100 nM)
- 900 nM or 100 nM Ag Bound (RU) [5]: 66 RU
- Kd [5]: 19.7 nM
- koff [5]: 0.000852 s⁻¹
- kon [5]: 43200 M⁻¹ s⁻¹
- t½ [5]: 14 min
- 100 nM Ag Bound (RU) [6]: 216 RU
- Kd [6]: 2.44 nM
- koff [6]: 0.000201 s⁻¹
- kon [6]: 82200 M⁻¹ s⁻¹
- t½ [6]: 57 min
- 900 nM or 100 nM Ag Bound (RU) [7]: 2 RU
- MFI - Normalized to Unstained Control [8]: 1160 fold
B3: mAb27241 (antibody, human IgG4 S228P, kappa, V domains shown)
VH: B2 VH
VL: B2 VL with N31I, K39Q, A51V, D70H, Y92D
